Data taken from US11136407.

Key:
[1] = target: CD9-3×FLAG-rabbitFc-Sortase-biotin (human; rabbit); assay: SPR; rests on the kd set to 0.1*10^-5; unit from the legend paragraph 216
[2] = target: CD9-3×FLAG-rabbitFc-Sortase-biotin (human; rabbit); assay: SPR (IBIS MX96), antibody injected over CD9-3×FLAG-rabbitFc-Sortase-biotin chip, 1:1 model
[3] = target: CD9-3×FLAG-rabbitFc-Sortase-biotin (human; rabbit); assay: ELISA, biotinylated CD9-EC2-Fc on streptavidin plate, goat anti-mouse HRP
[4] = target: CD9-3×FLAG-rabbitFc-Sortase-biotin (human; rabbit); assay: SPR; * legend: dissociation too low for accurate fitting, a value of 0.1*10^-5 is used
[5] = target: CD9-3×FLAG-rabbitFc-Sortase-biotin (human; rabbit); assay: SPR (IBIS MX96) on CD9 chip
[6] = target: CD9-3×FLAG-rabbitFc-Sortase-biotin (human; rabbit); assay: SPR, 1:1 model
[7] = target: CD9-3×FLAG-rabbitFc-Sortase-biotin (human; rabbit); assay: SPR, 1:1 model; unit from the legend paragraph 216

Row | Substance | Kd [1] | Kd [2] | EC50 [3] | koff [4] | fold affinity against AT14-012 [5] | kon [6] | Kd [7] | fold dissociation against HI9a [5] | koff [6]
1 | mouse anti-CD9 antibody clone HI9a | 0.00233 nM | 0.00233 nM | 0.02 µg/mL | < 1e-06 s⁻¹ | 19000 fold | 430000 M⁻¹ s⁻¹ |  |  | 
2 | mouse anti-CD9 antibody clone ALB6 |  | 0.145 nM | 0.013 µg/mL |  |  | 151000 M⁻¹ s⁻¹ | 0.145 nM | 22 fold | 2.16e-05 s⁻¹
